Results reported in PMC5611513, “Structure-Based Prototype Peptides Targeting the Pseudomonas aeruginosa Type VI Secretion System Effector as a Novel Antibacterial Strategy” (Frontiers in Cellular and Infection Microbiology, 2017).

Tested on: E. coli BL21 (DE3)
Assay: Cell-toxicity assay, spot growth on LB agar
Format: cell-based, Escherichia coli
Conditions: E. coli BL21 (DE3), 0.045 mM IPTG, 24 h
Method: Cell-toxicity assay was carried as previously described with minor modification (Jiang et al., [2016]). […] A 2 μl bacterial dilution was spotted onto LB agar plate containing 0.045 mM IPTG. Images were taken after 24 h growth.
(A) Diagrams of TplE, TplE-TplEi and “L” peptide expressing constructs. Expression of vector sequence and “L” peptide mutant with the PelB signal peptide was used as a control. […] A 10-fold serial dilution of overnight culture was spotted on LB agar plates from left to right. The experiments were performed at least 3 times.

Molecule	effect of co-expression of TplEi on TplE-dependent growth inhibition (TplE-TplEi co-expressed)	growth of E. coli on periplasmic expression of TplE (periplasmic-targeted TplE alone)
TplEi: cognate periplasmic immunity protein that neutralizes TplE (protein) CTSFSSSRSSSMDKTGWITHCFGRFLIDLPPDAVINAGYYLWGDRIEYLDDKPTELAARVDRLEQEWRTQRHKSKGNMFLRKIDFGNESVGLLSWSSEVASKTYLLDTYVTSKPTWHVYRWKGKVSVDREQHAVEISRALARNLRSRAPKEIPSEPGFCIDHAYIAGDSFQVERFGVGVTFPEHPGARFEFRSSTGAELNSLLERVDGFVQNMLSTFAGMETLRKGKHPVGSLPGEEYLVAGSDKGQRGYTFMWEVQGKEESLTEPNLTAGLAVLERSNENGKPPPPAFKSDKEALELWDTIVDSIRVRPTSSSPRGGNAGPSPAPKPATPGGQTLGDHYVYEEFLSSLKPKDSWLDDL	repressed the TplE-dependent growth inhibition	
TplE: H2-T6SS-dependent antibacterial lipolytic toxin (lipase effector) of P. aeruginosa (protein) MSSEPLEPNQDVIIPRSRDSLGRPVYKAQLTRTDNQSEKVALIRQTAPLPVIFIPGIMGTNLRNKADKSEVWRPPNGLWPMDDLFASIGALWTWAWRGPKARQELLKAEQVEVDDQGTIDVGQSGLSEEAARLRGWGKVMRSAYNPVMGLMERRLDNIVSRRELQAWWNDEALSPPGDQGEEQGKVGPIDEEELLRASRYQFDVWCAGYNWLQSNRQSALDVRDYIENTVLPFYQKECGLDPEQMRRMKVILVTHSMGGLVARALTQLHGYERVLGVVHGVQPATGSSTIYHHMRCGYEGIAQVVLGRNAGEVTAIVANSAGALELAPSAEYREGRPWLFLCDAQGQVLKDIDGKPRAYPQNQDPYEEIYKNTTWYGLVPEQNSQYLDMSDKKEGLRVGPRDNFEDLIDSIANFHGELSAAGYHSETYAHYGADDSRHSWRDLIWKGDPTPLETPGATLNDDENGTYNSWFRRGLPTIVQGPLETGNPLDASGSGGDETVPTDSGQAPALAGVKASFRHGSKGKGQANTKRGYEHQESYNDARAQWAALYGVIKITQLADWHPNDKGGT		significant inhibition of growth
